T1: YFP-tagged human AT1R (angiotensin II type 1 receptor) (human, UniProt P30556 1-359)
T1 sequence (looked up): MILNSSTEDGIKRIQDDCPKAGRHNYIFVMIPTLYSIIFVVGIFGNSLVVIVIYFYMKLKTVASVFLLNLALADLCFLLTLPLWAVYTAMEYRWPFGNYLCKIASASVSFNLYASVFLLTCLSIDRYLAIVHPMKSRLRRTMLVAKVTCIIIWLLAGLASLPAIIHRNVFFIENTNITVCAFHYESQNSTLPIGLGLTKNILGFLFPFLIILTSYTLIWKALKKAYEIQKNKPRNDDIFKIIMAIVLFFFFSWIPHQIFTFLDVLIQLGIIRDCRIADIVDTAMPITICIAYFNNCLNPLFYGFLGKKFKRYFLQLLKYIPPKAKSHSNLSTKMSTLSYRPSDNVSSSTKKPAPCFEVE

B1: RLuc-tagged bovine β-arrestin1 (natural protein, UniProt P17870 1-418, looked up)
chain: MGDKGTRVFKKASPNGKLTVYLGKRDFVDHIDLVEPVDGVVLVDPEYLKERRVYVTLTCAFRYGREDLDVLGLTFRKDLFVANVQSFPPAPEDKKPLTRLQERLIKKLGEHAYPFTFEIPPNLPCSVTLQPGPEDTGKACGVDYEVKAFCAENLEEKIHKRNSVRLVIRKVQYAPERPGPQPTAETTRQFLMSDKPLHLEASLDKEIYYHGEPISVNVHVTNNTNKTVKKIKISVRQYADICLFNTAQYKCPVAMEEADDTVAPSSTFCKVYTLTPFLANNREKRGLALDGKLKHEDTNLASSTLLREGANREILGIIVSYKVKVKLVVSRGGLLGDLASSDVAVELPFTLMHPKPKEEPPHREVPEHETPVDTNLIELDTNDDDIVFEDFARQRLKGMKDDKEEEEDGTGSPRLNDR
B2: RLuc-tagged bovine β-arrestin2 (natural protein, UniProt P32120 1-420, looked up)
chain: MGEKPGTRVFKKSSPNCKLTVYLGKRDFVDHLDKVDPVDGVVLVDPDYLKDRKVFVTLTCAFRYGREDLDVLGLSFRKDLFIANYQAFPPTPNPPRPPTRLQERLLRKLGQHAHPFFFTIPQNLPCSVTLQPGPEDTGKACGVDFEIRAFCAKSLEEKSHKRNSVRLVIRKVQFAPEKPGPQPSAETTRHFLMSDRSLHLEASLDKELYYHGEPLNVNVHVTNNSTKTVKKIKVSVRQYADICLFSTAQYKCPVAQVEQDDQVSPSSTFCKVYTITPLLSNNREKRGLALDGKLKHEDTNLASSTIVKEGANKEVLGILVSYRVKVKLVVSRGGDVSVELPFVLMHPKPHDHIALPRPQSAATHPPTLLPSAVPETDAPVDTNLIEFETNYATDDDIVFEDFARLRLKGLKDEDYDDQFC

How the values were obtained:
[1] = target: T1, YFP-tagged human AT1R (angiotensin II …); test: FRET or BRET
[2] = target: T1, YFP-tagged human AT1R (angiotensin II …); test: FRET or BRET; remark: listed apart in the source

| Binder | relative change of BRET ratio, 2 min with Ang II [1] | relative change of BRET ratio, 5 min with Ang II [1] | relative change of BRET ratio, 10 min with Ang II [1] | relative change of BRET ratio, 20 min with Ang II [1] | relative change of BRET ratio, 30 min with Ang II [1] | EC50 of Ang II for the relative change of BRET ratio [2] |
| --- | --- | --- | --- | --- | --- | --- |
| B1 | 89.1 % (Ang II for 10 minutes set to 100%) | 107 % (Ang II for 10 minutes set to 100%) | 100 % (Ang II for 10 minutes set to 100%) | 93.5 % (Ang II for 10 minutes set to 100%) | 95.8 % (Ang II for 10 minutes set to 100%) | 6.7 nM |
| B2 | 89.7 % (Ang II for 10 minutes set to 100%) | 102 % (Ang II for 10 minutes set to 100%) | 100 % (Ang II for 10 minutes set to 100%) | 112 % (Ang II for 10 minutes set to 100%) | 93.9 % (Ang II for 10 minutes set to 100%) | 6.3 nM |
